Patent publication US12098175B2, “Peptide inhibitors targeting the CXCL12/HMGB1 interaction and uses thereof” (INSTITUTE FOR RESEARCH IN BIOMEDICINE, priority 2019, dated 2024)
Where two headings read alike, the source gives them in different places. Where no end group is shown, it is not given here.

Experiments:
HMGB1 [1] = biological target: T1, HMGB1 (Homo sapiens, UniProt P09429); test: Binding affinity to HMGB1 by microscale thermophoresis (MST); details: for Kd (μM), equilibrium dissociation constant: MST, Example 6 (Table 4), highest peptide concentration 500 μM
T1 sequence (P09429 1-215): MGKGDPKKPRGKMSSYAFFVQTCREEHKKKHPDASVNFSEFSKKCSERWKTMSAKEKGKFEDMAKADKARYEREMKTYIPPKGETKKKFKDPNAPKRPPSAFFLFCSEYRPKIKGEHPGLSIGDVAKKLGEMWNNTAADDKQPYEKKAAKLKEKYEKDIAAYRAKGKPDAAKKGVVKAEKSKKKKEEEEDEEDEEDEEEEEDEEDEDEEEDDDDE
Procedure: The protein and the peptide were incubated for 15 minutes at room temperature, to allow binding. MST analysis was performed using premium-coated capillary tubes on a NanoTemper® instrument using the following experimental settings: LED power of 5% (for fluorescence excitation), and laser power 40% (to create temperature gradient). Kd values were calculate from compound concentration-dependent changes in normalized fluorescence (Fnorm). Independent experiments were performed to calculate the Kd value. Data were analyzed by the NanoTemper® analysis software.
MST analysis was performed using premium-coated capillary tubes on a NanoTemper instrument using the following experimental settings: LED power of 5% (for fluorescence excitation), and laser power 40% (to create temperature gradient). Kd values were calculated from compound concentration-dependent changes in normalized fluorescence (Fnorm). Independent experiments were performed to calculate the Kd value. Data were analyzed by the NanoTemper analysis software.

[2] = biological target: T2, CXCL12/HMGB1 heterocomplex (Homo sapiens, UniProt P09429); test: In vitro chemotaxis (Boyden chamber): CXCL12/HMGB1-induced migration of 300.19 PreB cells expressing human CXCR4; assay type: cell-based, murine; details: peptides at 100 μM; CXCL12 1 nM, HMGB1 300 nM; compared with glycyrrhizin 200 μM; 300.19 PreB cells with human CXCR4
T2 sequence (P09429 1-215): T1 sequence (P09429 1-215)
Procedure: The 13 identified and synthesized peptides were tested in in vitro chemotaxis, to assess their efficacy as inhibitors of the CXCL12/HMGB1-induced migration, on a murine cell line expressing the human CXCR4.
All peptides, at 100 μM, were incubated with CXCL12 and HMGB1 before assessing chemotaxis, to evaluate their ability to interfere with the heterocomplex formation, and inhibit the synergistic effect of HMGB1.

CXCL12 = CXCL12 (Homo sapiens, UniProt P48061); test: In vitro chemotaxis: migration induced by CXCL12 alone, 300.19 PreB cells expressing human CXCR4; assay type: cell-based, murine; details: peptides at 100 μM; CXCL12 1 nM; 300.19 PreB cells with human CXCR4
Sequence of CXCL12 (P48061 22-93, species assumed): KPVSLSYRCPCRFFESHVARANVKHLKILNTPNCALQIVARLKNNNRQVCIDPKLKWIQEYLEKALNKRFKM
Procedure: Further experiments were performed with CXCL12 alone to identify peptides affecting cell migration induced by CXCL12 alone.
Briefly, chemotaxis was performed using Boyden chambers with 5 μm pore membranes. […] 200 μM glycyrrhizin were used as positive control.

HMGB1 [3] = biological target: T1, HMGB1; details: literature value (Mollica et al. 2007); read-out: Kd reported for glycyrrhizin; cited from earlier work
Solubility in PBS = assay type: physicochemical

Row | Molecule | Inhibition of the enhanced migration induced by the CXCL12/HMGB1 heterocomplex [2] | Effect on cell migration induced by CXCL12 alone (CXCL12) | other results
1 | GYHYE [Pentapept-1] | – | – | Kd (μM), equilibrium dissociation constant (HMGB1 [1]): No binding*; Kd (μM), equilibrium dissociation constant (HMGB1 [1]; listed as pentapept-1): no binding was observed
2 | HWTLANWCR (HBP07) | inhibit the enhanced migration induced by the CXCL12/HMGB1 heterocomplex more than glycyrrhizin at 200 μM | do not affect CXCL12-induced cell migration | –
3 | YHICWYGDY (HBP12) | inhibit the enhanced migration induced by the CXCL12/HMGB1 heterocomplex more than glycyrrhizin at 200 μM | inhibit the migration induced by the chemokine alone | –
4 | CC1(C)[C@@H](O[C@H]2O[C@H](C(=O)O)[C@@H](O)[C@H](O)[C@H]2O[C@@H]2O[C@H](C(=O)O)[C@@H](O)[C@H](O)[C@H]2O)CC[C@]2(C)[C@H]3C(=O)C=C4[C@@H]5C[C@@](C)(C(=O)O)CC[C@]5(C)CC[C@@]4(C)[C@]3(C)CC[C@@H]12 [glycyrrhizin] | – | – | Kd (HMGB1 [3]): 125 µM
5 | ERWIH [Pentapept-2, ERWIH] | – | – | Kd (HMGB1 [1]): 200 ± 80 µM
6 | WISNWILMW (HBP05) | inhibit the enhanced migration induced by the CXCL12/HMGB1 heterocomplex more than glycyrrhizin at 200 μM | inhibit the migration induced by the chemokine alone | –
7 | GYHYEAWIH [HBP08-A6] | – | – | Solubility (Solubility in PBS): poorly soluble
